B1: OT-001737: ER-DD fused to flexi IL12, with or without intervening furin site (protein)
chain: MCHQQLVISWFSLVFLASPLVAGSSLALSLTADQMVSALLDAEPPILYSEYDPTRPFSEASMMGLLTNLADRELVHMINWAKRVPGFVDLALHDQVHLLECAWMEILMIGLVWRSMEHPGKLLFAPNLLLDRNQGKCVEGGVEIFDMLLATSSRFRMMNLQGEEFVCLKSIILLNSGVYTFLSSTLKSLEEKDHIHRVLDKITDTLIHLMAKAGLTLQQQHQRLAQLLLILSHIRHMSSKRMEHLYSMKCKNVVPLSDLLLEMLDAHRLRTKRIWELKKDVYVVELDWYPDAPGEMVVLTCDTPEEDGITWTLDQSSEVLGSGKTLTIQVKEFGDAGQYTCHKGGEVLSHSLLLLHKKEDGIWSTDILKDQKEPKNKTFLRCEAKNYSGRFTCWWLTTISTDLTFSVKSSRGSSDPQGVTCGAATLSAERVRGDNKEYEYSVECQEDSACPAAEESLPIEVMVDAVHKLKYENYTSSFFIRDIIKPDPPKNLQLKPLKNSRQVEVSWEYPDTWSTPHSYFSLTFCVQVQGKSKREKKDRVFTDKTSATVICRKNASISVRAQDRYYSSSWSEWASVPCSGGGGSGGGGSGGGGSRNLPVATPDPGMFPCLHHSQNLLRAVSNMLQKARQTLEFYPCTSEEIDHEDITKDKTSTVEACLPLELTKNESCLNSRETSFITNGSCLASRKTSFMMALCLSSIYEDLKMYQVEFKTMNAKLLMDPKRQIFLDQNMLAVIDELMQALNFNSETVPQKSSLEEPDFYKTKIKLCILLHAFRIRAVTIDRVMSYLNAS
B2: OT-001356: IL12-CD19 CAR tandem construct listed without ER DD mutation in Table 13 (control) (protein)
chain: IWELKKDVYVVELDWYPDAPGEMVVLTCDTPEEDGITWTLDQSSEVLGSGKTLTIQVKEFGDAGQYTCHKGGEVLSHSLLLLHKKEDGIWSTDILKDQKEPKNKTFLRCEAKNYSGRFTCWWLTTISTDLTFSVKSSRGSSDPQGVTCGAATLSAERVRGDNKEYEYSVECQEDSACPAAEESLPIEVMVDAVHKLKYENYTSSFFIRDIIKPDPPKNLQLKPLKNSRQVEVSWEYPDTWSTPHSYFSLTFCVQVQGKSKREKKDRVFTDKTSATVICRKNASISVRAQDRYYSSSWSEWASVPCSGGGGSGGGGSGGGGSRNLPVATPDPGMFPCLHHSQNLLRAVSNMLQKARQTLEFYPCTSEEIDHEDITKDKTSTVEACLPLELTKNESCLNSRETSFITNGSCLASRKTSFMMALCLSSIYEDLKMYQVEFKTMNAKLLMDPKRQIFLDQNMLAVIDELMQALNFNSETVPQKSSLEEPDFYKTKIKLCILLHAFRIRAVTIDRVMSYLNASGS
B3: OT-001569: ER-DD (T371A, L384M, M421G, N519S, G521R, Y537S) fused to flexi IL12 (protein)
chain: MCHQQLVISWFSLVFLASPLVAGSSLALSLTADQMVSALLDAEPPILYSEYDPTRPFSEASMMGLLTNLADRELVHMINWAKRVPGFVDLALHDQVHLLECAWMEILMIGLVWRSMEHPGKLLFAPNLLLDRNQGKCVEGGVEIFDMLLATSSRFRMMNLQGEEFVCLKSIILLNSGVYTFLSSTLKSLEEKDHIHRVLDKITDTLIHLMAKAGLTLQQQHQRLAQLLLILSHIRHMSSKRMEHLYSMKCKNVVPLSDLLLEMLDAHRLGSIWELKKDVYVVELDWYPDAPGEMVVLTCDTPEEDGITWTLDQSSEVLGSGKTLTIQVKEFGDAGQYTCHKGGEVLSHSLLLLHKKEDGIWSTDILKDQKEPKNKTFLRCEAKNYSGRFTCWWLTTISTDLTFSVKSSRGSSDPQGVTCGAATLSAERVRGDNKEYEYSVECQEDSACPAAEESLPIEVMVDAVHKLKYENYTSSFFIRDIIKPDPPKNLQLKPLKNSRQVEVSWEYPDTWSTPHSYFSLTFCVQVQGKSKREKKDRVFTDKTSATVICRKNASISVRAQDRYYSSSWSEWASVPCSGGGGSGGGGSGGGGSRNLPVATPDPGMFPCLHHSQNLLRAVSNMLQKARQTLEFYPCTSEEIDHEDITKDKTSTVEACLPLELTKNESCLNSRETSFITNGSCLASRKTSFMMALCLSSIYEDLKMYQVEFKTMNAKLLMDPKRQIFLDQNMLAVIDELMQALNFNSETVPQKSSLEEPDFYKTKIKLCILLHAFRIRAVTIDRVMSYLNAS
B4: OT-001791: CD8α leader; Linker (RS); ER (T371A, L384M, M421G, N519S, G521R, Y537S); Furin cleavage site; CD19 CAR; SEQ ID NO. 404 (protein)
chain: MALPVTALLLPLALLLHAARPRSSLALSLTADQMVSALLDAEPPILYSEYDPTRPFSEASMMGLLTNLADRELVHMINWAKRVPGFVDLALHDQVHLLECAWMEILMIGLVWRSMEHPGKLLFAPNLLLDRNQGKCVEGGVEIFDMLLATSSRFRMMNLQGEEFVCLKSIILLNSGVYTFLSSTLKSLEEKDHIHRVLDKITDTLIHLMAKAGLTLQQQHQRLAQLLLILSHIRHMSSKRMEHLYSMKCKNVVPLSDLLLEMLDAHRLGTGAEDPRPSRKRRSLGDVGEIVMTQSPATLSLSPGERATLSCRASQDISKYLNWYQQKPGQAPRLLIYHTSRLHSGIPARFSGSGSGTDYTLTISSLQPEDFAVYFCQQGNTLPYTFGQGTKLEIKGGGGSGGGGSGGGGSQVQLQESGPGLVKPSETLSLTCTVSGVSLPDYGVSWIRQPPGKGLEWIGVIWGSETTYYSSSLKSRVTISKDNSKNQVSLKLSSVTAADTAVYYCAKHYYYGGSYAMDYWGQGTLVTVSSTTTPAPRPPTPAPTIASQPLSLRPEACRPAAGGAVHTRGLDFACDIYIWAPLAGTCGVLLLSLVITLYCKRGRKKLLYIFKQPFMRPVQTTQEEDGCSCRFPEEEEGGCELRVKFSRSADAPAYKQGQNQLYNELNLGRREEYDVLDKRRGRDPEMGGKPRRKNPQEGLYNELQKDKMAEAYSEIGMKGERRRGKGHDGLYQGLSTATKDTYDALHMQALPPR

Assays:
Assay type in all cases: cell-based, human
HEK 293T cells = assay: IL12 expression of ER-DD flexi IL12 constructs in transiently transfected HEK 293T cells (MSD assay); conditions: for IL12 expression, 1 μM BZD / IL12 expression, Vehicle: HEK 293T transiently transfected, MSD assay; for IL12 expression, 1 μM BZD: 1 μM Bazedoxifene 24 hours; for IL12 expression, Vehicle: vehicle control 24 hours; for Stabilization Ratio: IL12 with 1 μM BZD versus vehicle
Procedure: HEK 293T cells were transiently transfected with constructs containing ER-DDs fused to flexi IL12 with or without intervening furin site to generate constructs: OT-001569, OT-001737. Cells were then treated with 1 μM Bazedoxifene (BZD) or vehicle control for 24 hours and IL12 levels were measured by MSD assay Table 11.

HEK293T cells [1] = assay: CD19 CAR cell surface expression in transfected HEK293T cells (FACS with CD19-Fc); conditions: measure of transfection efficiency
Procedure: (§1) HEK293T cells were transiently transfected with 1 μg DNA from each construct listed in the first column of Table 13 and incubated in DMEM with 10% FBS at 37° C., 5% CO2 for 24 hrs. Following the incubation, 1 μM of Bazedoxifene (BZD) or vehicle was added and cells were further incubated for 24 hrs. Following the incubation, CD19 CAR expression on the cell surface was quantified using FACS with CD19-Fc reagent, as a measure of transfection efficiency. IL12 levels in the media were quantified using MSD assay for p40. The IL12 and CD19 levels are shown in Table 13, where SD indicates standard deviation and SR indicates stabilization ratio. The stabilization ratio was calculated using the average IL12 values.

HEK293T cells [2] = assay: IL12 p40 in media of HEK293T cells transfected with IL12-CD19 CAR tandem constructs (MSD assay); conditions: for IL12p40 DMSO Average: vehicle 24 hrs (absence of ligand)
Procedure: as §1

primary T cells = assay: CD19 CAR expression on lentivirus transduced primary T cells (flow cytometry with CD19-Fc); conditions: both day 7 and day 9
Procedure: Primary T cells were activated with CD3/CD28 Dynabeads at 3:1 Bead: Cell ratio overnight, then transduced with OT-001792 lentivirus. On day 7 of the T cell expansion, CAR expression was measured by flow cytometry with CD19-Fc on cells treated overnight in the presence (34% positive) or absence (0.6% positive) of 1 μM Bazedoxifene. After the T cells had expanded for 10 days, they were mixed with CD19-expressing Nalm6 target cells at ratios of 10:1 and 2.5:1 total T cells:Nalm6 cells and cultured for 3 days.
Primary T cells were activated with CD3/CD28 Dynabeads at 3:1 Bead:Cell ratio overnight, then transduced with lentiviruses derived from the indicated constructs. On day 7 or day 9 (as indicated) of the T cell expansion, CAR expression was measured by flow cytometry with CD19-Fc on cells incubated for 24 hours with 1 μM Bazedoxifene or 1 μM Raloxifene or DMSO. […] At day 9 the basal percentage of CAR positive cells for the same constructs was even lower at approximately 20% i.e. in the absence of ligand and about 32-45% in the presence of either ligand. […] This was true at both day 7 and day 9.
Human donor T cells were thawed and activated overnight in the presence of CD3/CD28 Dynabeads at 3:1 bead:cell ratio, then transduced with lentivirus related to OT-002158, or OT-001786. Cells were expanded over the course of 10 days, with fresh media added to maintain cells at around 0.5×10^6 cells/mL. On day 9, an aliquot of cells was removed, and treated with 1 μM Bazedoxifene overnight or DMSO vehicle control, then stained with 10 μg/mL CD19-Fc. Histograms showing CAR expression from a Live Singlet cell gate were plotted.
Human donor T cells were thawed and activated overnight in the presence of CD3/CD28 Dynabeads at 3:1 bead:cell ratio, then transduced with lentivirus from the constructs. Cells were expanded over the course of 10 days, and fresh media was added to maintain cells around 0.5×10^6 cells/ml. On day 9, an aliquot of cells were removed, treated with 1 μM Bazedoxifene overnight, then stained with 10 μg/mL CD19-Fc. Histograms showing CAR expression from a Live Singlet cell gate were plotted. The data are shown in Table 19 and Table 20 where data are presented as % CAR positive cells, where SR indicates stabilization ration.
T cells were transduced with OT-00179, OT-002158, OT-001407 or empty vector and expanded as described herein, frozen on day 10. To confirm the expression and function of this large scale expansion for in vivo use, cells were thawed and incubated overnight in the presence of CD3/28 beads (1:1 bead:cell ratio) and with or without 1 μM Bazedoxifene. FACS staining with 1 μg/mL CD19-Fc was performed to measure the surface expression of CD19-CAR. The data are provided in Table 21 as the percentage CAR positive cells.

Molecule | IL12 expression, 1 μM BZD (HEK 293T cells) | IL12 expression, Vehicle (HEK 293T cells) | Stabilization Ratio (HEK 293T cells) | Surface CAR (HEK293T cells [1]) [%] | IL12p40 DMSO Average (HEK293T cells [2]; HEK293T, 1 μg DNA) [pg/mL] | IL12p40 1 μM BZD Average (HEK293T cells [2]; HEK293T, 1 μg DNA, 1 μM Bazedoxifene 24 hrs) [pg/mL] | SR (stabilization ratio) (HEK293T cells [2]; calculated using the average IL12 values, 1 μM BZD versus DMSO) | percentage of CAR positive cells (primary T cells; absence of ligand) | percentage of CAR positive cells (primary T cells; presence of ligand)
B1 | 79706.8 | 10186.4 | 7.8 |  |  |  |  |  | 
B2 |  |  |  | 40 | 203531.67 |  |  |  | 
B3 | 109878 | 11529.1 | 9.5 | 0.1 | 6443.64 | 75542.57 | 11.72 |  | 
B4 |  |  |  |  |  |  |  | undetectable | about 5%

From patent US20210386788A1, “ER TUNABLE PROTEIN REGULATION” (Obsidian Therapeutics, Inc., priority 2018, published 2021)
